B1: NubG-Dga1 (full-length NubG-Dga1 fusion) [S. cerevisiae] / Ole1-Myc-Cub-LexA-VP16 [S. cerevisiae] (parent complex)
chain 1: MSGTFNDIRRRKKEEGSPTAGITERHENKSLSSIDKREQTLKPQLESCCPLATPFERRLQTLAVAWHTSSFVLFSIFTLFAISTPALWVLAIPYMIYFFFDRSPATGEVVNRYSLRFRSLPIWKWYCDYFPISLIKTVNLKPTFTLSKNKRVNEKNYKIRLWPTKYSINLKSNSTIDYRNQECTGPTYLFGYHPHGIGALGAFGAFATEGCNYSKIFPGIPISLMTLVTQFHIPLYRDYLLALGISSVSRKNALRTLSKNQSICIVVGGARESLLSSTNGTQLILNKRKGFIKLAIQTGNINLVPVFAFGEVDCYNVLSTKKDSVLGKMQLWFKENFGFTIPIFYARGLFNYDFGLLPFRAPINVVVGRPIYVEKKITNPPDDVVNHFHDLYIAELKRLYYENREKYGVPDAELKIVG
chain 2: MPTSGTTIELIDDQFPKDDSASSGIVDEVDLTEANILATGLNKKAPRIVNGFGSLMGSKEMVSVEFDKKGNEKKSNLDRLLEKDNQEKEEAKTKIHISEQPWTLNNWHQHLNWLNMVLVCGMPMIGWYFALSGKVPLHLNVFLFSVFYYAVGGVSITAGYHRLWSHRSYSAHWPLRLFYAIFGCASVEGSAKWWGHSHRIHHRYTDTLRDPYDARRGLWYSHMGWMLLKPNPKYKARADITDMTDDWTIRFQHRHYILLMLLTAFVIPTLICGYFFNDYMGGLIYAGFIRVFVIQQATFCINSLAHYIGTQPFDDRRTPRDNWITAIVTFGEGYHNFHHEFPTDYRNAIKWYQYDPTKVIIYLTSLVGLAYDLKKFSQNAIEEALIQQEQKKINKKKAKINWGPVLTDLPMWDKQTFLAKSKENKGLVIISGIVHDVSGYISEHPGGETLIKTALGKDATKAFSGGVYRHSNAAQNVLADMRVAVIKESKNSAIRMASKRGEIYETGKFF

Variants of: B1
Assay: integrated membrane yeast two-hybrid assay (β-galactosidase reporter); n = 3 biological replicates; parent: 1; read off a plot

Variant | ratio to parent
chain 1 MSGTFNDIRRRKKEEGSPTAGITERHENKSLSSIDKREQTLKPQLESCCPLATPFERRLQTLAVAWHTSSFVLFSIFTLFAISTPALWVLAIPYMIYFFFDRSPATGEVVNRYSLRFRSLPIWKWYCDYFPISLIKTVNLKPTFTLSKNKRVNEKNYKIRLWPTKYSINLKSNSTIDYRNQECTGPTYLFGYHPHGIGALGAFGAFATEGCNYSKIFPGIPISLMTLVTQFHIPLYRDYLLALGISSVSRKNALRTLSKNQSICIVVGGARESLLSSTNGTQLILNKRKGFIKLAIQTGNINLVPVFAFGEVDCYNVLSTKKDSVLGKMQLWFKENFGFTIPIFYARGLFNYDFGLLPFRAPINVVVGRPIYVEKKITNPPDDVVNHFHDLYIAELAALYYENREKYGVPAAALAIVG [chain 1 K397A, chain 1 R398A, chain 1 D411A, chain 1 E413A, chain 1 K415A] | ~0.2
chain 1 MSGTFNDIRRRKKEEGSPTAGITERHENKSLSSIDKREQTLKPQLESCCPLATPFERRLQTLAVAWHTSSFVLFSIFTLFAISTPALWVLAIPYMIYFFFDRSPATGEVVNRYSLRFRSLPIWKWYCDYFPISLIKTVNLKPTFTLSKNKRVNEKNYKIRLWPTKYSINLKSNSTIDYRNQECTGPTYLFGYHPHGIGALGAFGAFATEGCNYSKIFPGIPISLMTLVTQFHIPLYRDYLLALGISSVSRKNALRTLSKNQSICIVVGGARESLLSSTNGTQLILNKRKGFIKLAIQTGNINLVPVFAFGEVDCYNVLSTKKDSVLGKMQLWFKENFGFTIPIFYARGLFNYDFGLLPFRAPINVVVGRPIYVEKKITNPPDDVVNHFHDLYIAELKRLYYENAAAYGVPDAELKIVG [chain 1 R404A, chain 1 E405A, chain 1 K406A] | ~0.84

From PMC10302205, “Saccharomyces cerevisiae Δ9-desaturase Ole1 forms a supercomplex with Slc1 and Dga1” (The Journal of Biological Chemistry, 2023)
